Data on one molecule can be found in PMC8464079.

The term Kd denotes the free concentration of one partner at which half of the binding sites on the other are occupied at equilibrium, for simple one-to-one binding. A higher Kd goes with weaker binding.

Experiment in all cases: fluorescence polarization
A general note: In fluorescence polarisation assays a small probe gives low polarisation when free and higher when bound to something large.

Data set [1] deals with T1, MUT-#12 (K513E) (Caenorhabditis elegans, UniProt Q09487 172-535, K513E).
T1 sequence: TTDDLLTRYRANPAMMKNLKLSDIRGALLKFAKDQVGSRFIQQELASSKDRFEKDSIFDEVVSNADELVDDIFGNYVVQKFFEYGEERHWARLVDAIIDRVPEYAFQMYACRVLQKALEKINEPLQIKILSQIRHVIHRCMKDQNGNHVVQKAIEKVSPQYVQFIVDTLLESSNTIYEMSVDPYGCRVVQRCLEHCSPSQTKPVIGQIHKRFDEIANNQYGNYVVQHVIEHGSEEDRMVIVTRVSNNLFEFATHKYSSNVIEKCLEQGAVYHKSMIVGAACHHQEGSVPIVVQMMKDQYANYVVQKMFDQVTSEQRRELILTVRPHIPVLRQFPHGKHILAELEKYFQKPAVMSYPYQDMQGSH

The target of data set [2] is T2, MUT-#13 (K513R) (Caenorhabditis elegans, UniProt Q09487 172-535, K513R).
T2 sequence: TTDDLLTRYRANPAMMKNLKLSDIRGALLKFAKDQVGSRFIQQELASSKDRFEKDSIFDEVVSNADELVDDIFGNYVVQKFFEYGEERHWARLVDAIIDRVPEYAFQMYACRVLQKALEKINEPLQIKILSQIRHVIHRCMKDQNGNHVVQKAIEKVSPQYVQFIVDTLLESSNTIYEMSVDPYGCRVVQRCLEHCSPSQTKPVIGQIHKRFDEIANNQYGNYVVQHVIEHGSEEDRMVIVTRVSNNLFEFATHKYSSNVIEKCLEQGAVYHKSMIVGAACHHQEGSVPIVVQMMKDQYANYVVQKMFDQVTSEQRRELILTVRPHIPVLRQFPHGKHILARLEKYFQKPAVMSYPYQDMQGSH

The target of data set [3] is T3, MUT-4C (Caenorhabditis elegans, UniProt Q09487 172-535, N318C;H319Y;Q322R).
T3 sequence: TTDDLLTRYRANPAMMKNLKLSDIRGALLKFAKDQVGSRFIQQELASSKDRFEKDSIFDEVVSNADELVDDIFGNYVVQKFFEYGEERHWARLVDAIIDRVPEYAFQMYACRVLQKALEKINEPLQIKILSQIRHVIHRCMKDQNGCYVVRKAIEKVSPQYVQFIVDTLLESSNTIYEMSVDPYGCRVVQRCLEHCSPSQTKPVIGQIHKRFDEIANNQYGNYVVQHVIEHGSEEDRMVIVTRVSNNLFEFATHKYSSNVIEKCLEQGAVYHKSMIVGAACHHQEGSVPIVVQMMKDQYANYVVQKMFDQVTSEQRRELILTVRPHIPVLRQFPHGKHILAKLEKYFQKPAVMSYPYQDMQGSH

Data set [4] has as its target T4, MUT-#10 (Q476E) (Caenorhabditis elegans, UniProt Q09487 172-535, Q476E).
T4 sequence: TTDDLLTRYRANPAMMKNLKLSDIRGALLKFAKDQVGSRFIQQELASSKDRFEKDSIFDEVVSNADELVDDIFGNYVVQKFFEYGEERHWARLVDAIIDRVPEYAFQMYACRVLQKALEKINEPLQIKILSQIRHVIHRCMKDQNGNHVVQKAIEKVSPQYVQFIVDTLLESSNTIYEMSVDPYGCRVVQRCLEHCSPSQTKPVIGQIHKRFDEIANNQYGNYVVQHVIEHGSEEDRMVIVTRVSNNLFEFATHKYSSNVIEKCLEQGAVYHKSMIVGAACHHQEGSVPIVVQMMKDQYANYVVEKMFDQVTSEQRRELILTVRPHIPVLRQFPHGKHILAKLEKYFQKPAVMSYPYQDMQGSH

Data set [5] addresses T5, MUT-#9 (Q476A) (Caenorhabditis elegans, UniProt Q09487 172-535, Q476A).
T5 sequence: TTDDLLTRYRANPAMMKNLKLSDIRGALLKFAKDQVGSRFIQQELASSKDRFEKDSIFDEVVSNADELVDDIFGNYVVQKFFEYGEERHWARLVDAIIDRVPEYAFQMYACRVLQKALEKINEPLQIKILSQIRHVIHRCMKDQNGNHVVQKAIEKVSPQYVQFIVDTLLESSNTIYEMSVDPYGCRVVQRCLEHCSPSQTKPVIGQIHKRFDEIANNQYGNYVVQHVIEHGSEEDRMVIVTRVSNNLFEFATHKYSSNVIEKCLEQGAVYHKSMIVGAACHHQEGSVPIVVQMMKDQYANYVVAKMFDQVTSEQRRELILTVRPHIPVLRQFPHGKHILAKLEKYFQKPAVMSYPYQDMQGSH

In data set [6] the target is T6, PUF-8 WT (FP) (Caenorhabditis elegans, UniProt Q09487 172-535).
T6 sequence: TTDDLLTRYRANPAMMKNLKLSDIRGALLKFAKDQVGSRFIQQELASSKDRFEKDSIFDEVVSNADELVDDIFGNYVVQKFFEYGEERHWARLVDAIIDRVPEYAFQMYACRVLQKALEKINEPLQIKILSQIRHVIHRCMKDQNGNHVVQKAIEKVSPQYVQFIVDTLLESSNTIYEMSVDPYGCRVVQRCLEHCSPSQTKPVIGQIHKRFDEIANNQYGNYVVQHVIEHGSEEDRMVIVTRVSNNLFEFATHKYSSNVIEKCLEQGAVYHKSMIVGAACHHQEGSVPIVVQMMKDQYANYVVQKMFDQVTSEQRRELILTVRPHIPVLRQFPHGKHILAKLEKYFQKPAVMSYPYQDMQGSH

In the case of UGUAAAUA (ssRNA) [PBE-5A FAM], the dissociation constant (Kd) in data set [1] was found to be 209 ± 29.1 nM; in data set [2], 60 ± 13.2 nM; in data set [3], 16.3 ± 4.64 nM; in data set [4], 519 ± 63.1 nM; in data set [5], 63.5 ± 11.1 nM; in data set [6] it was 2.49 ± 1.5 nM.
